Here are results for 6 substances from PMC3469418, “New Partners in Regulation of Gene Expression: The Enhancer of Trithorax and Polycomb Corto Interacts with Methylated Ribosomal Protein L12 Via Its Chromodomain” (PLoS Genetics, 2012).

Like-named read-outs stand apart in the source and are kept apart here. Where only a bound is given, the exact number is not on record here.

Assay in all cases: SPR; Biacore 3000; GST, GST-CortoCD or GST-HP1CD covalently coupled to a CM5 chip; peptides injected at 1 or 10 µM (binding test) or in series from 1 to 10 µM (kinetics), 5 µL/min, 5 min; 10 mM Hepes pH7.4, 150 mM NaCl, 3 mM EDTA, 0.005% P20; 1:1 Langmuir fit
The target in test [1] is GST-CortoCD (Corto chromodomain fused to GST) (D. melanogaster).
The target is the same in test [2]. The source holds these as a separate data set.
Test [3] concerns the target GST-HP1CD (HP1 chromodomain fused to GST).

With RPL12 peptide dimethylated on lysine 3, the Kd in test [1] was above 200 µM.

Take RPL12 peptide trimethylated on lysine 3: the Kd was below 100 µM in test [2], above 200 µM in test [3] and 8 µM in test [1].

With “RPL12 peptide trimethylated on lysine 10”, the Kd in test [3] and in test [1] was above 200 µM in each case.

Consider RPL12 unmodified peptide, for which the Kd in test [3] and in test [1] was above 200 µM in each case.

As for “histone H3 peptide trimethylated on lysine 9”, the Kd in test [3] is 0.4 µM.

“histone H3 peptide trimethylated on lysine 27” showed a Kd in test [3] of 0.7 µM. Compared with the last substance, the Kd is about 1.7-fold higher.

A word on the Kd: it is a measure of binding affinity in units of concentration.
